Data taken from US20250257133A1 (ADAGENE PTE, published 2025).
Residue numbers refer to the chain shown, from its start. Numbers in names are those of the source. Where two headings read alike, the source gives them in different places.

B1: TY30120 (bispecific antibody, human IgG1, kappa, N297A)
light: DIQLTQSPSSLSASVGDRVTITCRASQSIRKYLNWYQQKPGKAPKLLIYAASTLQSGVPSRFSGSGSGTDFTLTISSLQPEDFATYFCSQGTHVPFTFGQGTKVEIKRTVAAPSVFIFPPSDEQLKSGTASVVCLLNNFYPREAKVQWKVDNALQSGNSQESVTEQDSKDSTYSLSSTLTLSKADYEKHKVYACEVTHQGLSSPVTKSFNRGEC
heavy: EVQLVESGGGLVQPGGSLRLSCAASGFTFSGYGIHWVRQAPGKGLEWIGWISPSGGDTKYAQKFQGRVTISRDNSKNTLYLQLNSLRAEDTAVYYCARGGTVVYFDYWGQGTLVTVSSASTKGPSVFPLAPSSKSTSGGTAALGCLVKDYFPEPVTVSWNSGALTSGVHTFPAVLQSSGLYSLSSVVTVPSSSLGTQTYICNVNHKPSNTKVDKKVEPKSCDKTHTCPPCPAPELLGGPSVFLFPPKPKDTLMISRTPEVTCVVVDVSHEDPEVKFNWYVDGVEVHNAKTKPREEQYASTYRVVSVLTVLHQDWLNGKEYKCKVSNKALPAPIEKTISKAKGQPREPQVYTLPPSRKKLTKNQVKLTCLVKGFYPSDIAVEWESNGQPENNYKTTPPVLDCDGSFFLYSKLTVDKSRWQQGNVFSCSVMHEALHNHYTQKSLSLSPGK
chain: EVQLVESGGGLVQPGGSLRLSCAASGFSLSTSGVGVSWIRQAPGKGLEWIGEIYHSGSTYYSPSLKSRVTISRDNSKNTLYLQLNSLRAEDTAVYYCARYGYYYYDFDYWGQGTLVTVSSGGGGSGGGGSGGGGSGGGGSDIQLTQSPSSLSASVGDRVTITCRASQSVDFHGISFLHWYQQKPGKAPKLLIYAASSLQSGVPSRFSGSGSGTDFTLTISSLQPEDFATYYCQQSYRSPRTFGQGTKVEIKEPKSSDKTHTCPPCPAPELLGGPSVFLFPPKPKDTLMISRTPEVTCVVVDVSHEDPEVKFNWYVDGVEVHNAKTKPREEQYASTYRVVSVLTVLHQDWLNGKEYKCKVSNKALPAPIEKTISKAKGQPREPQVYTDPPSRDELTKNQVSLTCLVDGFYPSDIAVEWESNGQPENCYKTTPPVLDSDGSFFLYSKLTVDKSRWQQGNVFSCSVMHEALHNHYTQDSLSLSPGK
notes: anti-B7H3 Fab x CD28 scFv BC10599 (VH-VL)-Fc
B2: TY27556 (bispecific antibody, human IgG1, kappa, N297A)
light: B1 light
heavy: B1 heavy
chain: DIQLTQSPSSLSASVGDRVTITCRASQSVDFHGISFLHWYQQKPGKAPKLLIYAASSLQSGVPSRFSGSGSGTDFTLTISSLQPEDFATYYCQQSYRSPRTFGQGTKVEIKGGGGSGGGGSGGGGSGGGGSEVQLVESGGGLVQPGGSLRLSCAASGFSLSTGGVGVSWIRQAPGKGLEWIGEIYHSGSTYYSPSLKSRVTISRDNSKNTLYLQLNSLRAEDTAVYYCARYEYYYYDFDYWGQGTLVTVSSEPKSSDKTHTCPPCPAPELLGGPSVFLFPPKPKDTLMISRTPEVTCVVVDVSHEDPEVKFNWYVDGVEVHNAKTKPREEQYASTYRVVSVLTVLHQDWLNGKEYKCKVSNKALPAPIEKTISKAKGQPREPQVYTDPPSRDELTKNQVSLTCLVDGFYPSDIAVEWESNGQPENCYKTTPPVLDSDGSFFLYSKLTVDKSRWQQGNVFSCSVMHEALHNHYTQDSLSLSPGK
notes: also called anti-B7H3xCD28 BsAb
B3: TY29815 (bispecific antibody, human IgG1, kappa, N297A)
light: DIQLTQSPSSLSASVGDRVTITCRASQSIPSFLNWYQQKPGKAPKLLIYAASSLQSGVPSRFSGSGSGTDFTLTISSLQPEDFATYYCQHYISWPRQFTFGQGTKVEIKRTVAAPSVFIFPPSDEQLKSGTASVVCLLNNFYPREAKVQWKVDNALQSGNSQESVTEQDSKDSTYSLSSTLTLSKADYEKHKVYACEVTHQGLSSPVTKSFNRGEC
heavy: EVQLVESGGGLVQPGGSLRLSCAASGYSISSGYYWGWIRQAPGKGLEWIGIIYPSGGGTNYAQKFQGRVTISRDNSKNTLYLQLNSLRAEDTAVYYCARGGGLGFDYWGQGTLVTVSSASTKGPSVFPLAPSSKSTSGGTAALGCLVKDYFPEPVTVSWNSGALTSGVHTFPAVLQSSGLYSLSSVVTVPSSSLGTQTYICNVNHKPSNTKVDKKVEPKSCDKTHTCPPCPAPELLGGPSVFLFPPKPKDTLMISRTPEVTCVVVDVSHEDPEVKFNWYVDGVEVHNAKTKPREEQYASTYRVVSVLTVLHQDWLNGKEYKCKVSNKALPAPIEKTISKAKGQPREPQVYTLPPSRKKLTKNQVKLTCLVKGFYPSDIAVEWESNGQPENNYKTTPPVLDCDGSFFLYSKLTVDKSRWQQGNVFSCSVMHEALHNHYTQKSLSLSPGK
chain: B1 chain with S32G, G101E
notes: also called TY29815 (WT); wild type anti-PD-L1xCD28 bsAb
B4: TY30121 (bispecific antibody, human IgG1, kappa, N297A)
light: B1 light
heavy: B1 heavy
chain: B1 chain with S37G, S62N, G101K, Y103D
notes: anti-B7H3 Fab x CD28 scFv BC10601 (VH-VL)-Fc
B5: TY30413 (bispecific antibody, human IgG1, kappa, N297A)
light: B3 light
heavy: B3 heavy
chain: B1 chain with S32G, G101E, Y104H
notes: anti-PD-L1 Fab x CD28 scFv VH-VL (YYHY)-Fc
B6: TY30123 (bispecific antibody, human IgG1, kappa, N297A)
light: B1 light
heavy: B1 heavy
chain: B1 chain with S32G, S37G
notes: anti-B7H3 Fab x CD28 scFv BC10621 (VH-VL)-Fc
B7: TY24865 (antibody, human IgG4 S228P, kappa)
heavy: not shown
light: DIQLTQSPSSLSASVGDRVTITCRASQSVDFHGISFLHWYQQKPGKAPKLLIYAASSLQSGVPSRFSGSGSGTDFTLTISSLQPEDFATYYCQQSYRSPRTFGQGTKVEIKRTVAAPSVFIFPPSDEQLKSGTASVVCLLNNFYPREAKVQWKVDNALQSGNSQESVTEQDSKDSTYSLSSTLTLSKADYEKHKVYACEVTHQGLSSPVTKSFNRGEC
notes: hIgG4/S241P; also called parental anti-CD28 antibody
B8: TY25238 (bispecific antibody)
chain 1: not shown
chain 2: not shown
chain 3: QAVVTQEPSLTVSPGGTVTLTCGSSTGAVTTSNYPNWVQQKPGQAPRGLIGGTNKRAPGVPARFSGSLLGGKAALTLSGAQPEDEAEYYCALWYSNLWVFGGGTKLTVLGGGGSGGGGSGGGGSGGGGSEVQLVESGGGLVQPGGSLRLSCAASGFTFNTYAINWVRQAPGKGLEWVGRIRSKYNNYATYYAESVKGRFTISRDDSKNTLYLQINSLRAEDTAVYYCVRHGNFGTSYVSWFAYWGQGTLVTVSSEPKSSDKTHTCPPCPAPELLGGPSVFLFPPKPKDTLMISRTPEVTCVVVDVSHEDPEVKFNWYVDGVEVHNAKTKPREEQYASTYRVVSVLTVLHQDWLNGKEYKCKVSNKALPAPIEKTISKAKGQPREPQVYTDPPSRDELTKNQVSLTCLVDGFYPSDIAVEWESNGQPENCYKTTPPVLDSDGSFFLYSKLTVDKSRWQQGNVFSCSVMHEALHNHYTQDSLSLSPGK
B9: TY24773 (antibody, human IgG4 S228P, kappa, V domains shown)
VH: EVQLVESGGGLVQPGGSLRLSCAASGYSISSGYHWGWIRQAPGKGLEWIGEIYHSGSTYYSPSLKSRVTISRDNSKNTLYLQLNSLRAEDTAVYYCARKDYYYALDYWGQGTLVTVSS
VL: DIQLTQSPSSLSASVGDRVTITCRASQSVDFYGKSFLHWYQQKPGKAPKLLIYAASTLQSGVPSRFSGSGSGTDFTLTISSLQPEDFATYYCQQSYRTPLTFGQGTKVEIKR
notes: hIgG4/S241P
B10: TY24853 (antibody, human IgG4 S228P, kappa, V domains shown)
VH: B9 VH with S30T, Y33H, G36S, Y101D, L105F
VL: B9 VL with Q27E, K34I, L100I
notes: hIgG4/S241P

Key:
Mouse CD28 on cells = biological target: T1, Mouse CD28 on cells (mouse, UniProt P31041 20-218); assay: flow cytometry on mouse T cells, median fluorescence intensity; drawn table; parameters: AUC: unit not given beside the values
T1 construct: also called CD28 on mouse T cells

[1] = biological target: Mouse CD28 (ELISA of Example 13) (mouse, UniProt P31041 20-150, limits assumed); assay: ELISA
[2] = biological target: T2, Human CD28 (ELISAs of Examples 4 and 13) (human, UniProt P10747 19-152, limits assumed); assay: ELISA
B7H3 on MDA-MB-231 cells = biological target: T3, B7H3 on MDA-MB-231 cells (UniProt Q5ZPR3 29-534, limits assumed); assay: flow cytometry, MDA-MB-231 cells
T3 construct: whole, on cells
T3 sequence (looked up): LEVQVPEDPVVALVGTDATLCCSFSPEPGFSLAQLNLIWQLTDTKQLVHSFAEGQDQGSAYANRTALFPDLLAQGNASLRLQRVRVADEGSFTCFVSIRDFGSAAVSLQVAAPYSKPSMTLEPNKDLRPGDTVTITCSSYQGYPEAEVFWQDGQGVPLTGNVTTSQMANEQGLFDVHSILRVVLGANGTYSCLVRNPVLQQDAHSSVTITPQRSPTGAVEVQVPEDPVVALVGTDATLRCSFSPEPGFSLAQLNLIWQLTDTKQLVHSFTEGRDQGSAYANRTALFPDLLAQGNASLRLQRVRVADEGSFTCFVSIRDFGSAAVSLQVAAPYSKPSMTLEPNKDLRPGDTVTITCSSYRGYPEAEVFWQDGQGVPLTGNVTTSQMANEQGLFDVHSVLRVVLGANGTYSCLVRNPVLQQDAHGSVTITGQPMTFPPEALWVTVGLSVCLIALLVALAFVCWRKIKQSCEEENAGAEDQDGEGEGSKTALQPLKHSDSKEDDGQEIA
Procedure: An isotype antibody was included as a negative control.
MDA-MB-231 cells were cultured and seeded in 96-well plates at 1.0×10⁵ cells/well and incubated with serially diluted test BsAbs for 60 minutes at 4° C. in 2% FBS/RPMI1640 buffer. Next, the cells were washed twice with DPBS and further incubated with secondary APC-anti-human IgG Fe antibody (1:400 dilution) for 30 minutes at 4° C. Finally, the cells were washed twice with DPBS and resuspended in FACS buffer for flow cytometry analysis. For analysis, the MFI values versus concentrations were plotted using FlowJo 10 software (FlowJo LLC) and the data were further fitted with four-parameter non-linear regression to obtain EC₅₀ values by GraphPad Prism version 7 for Windows.

[3] = biological target: T2, Human CD28 (ELISAs of Examples 4 and 13); assay: ELISA; remark: listed apart in the source
Human CD28 on cells = biological target: T4, Human CD28 on cells (human, UniProt P10747 19-220); assay: flow cytometry, Jurkat cells
T4 construct: Jurkat E6-1 cells, primary human T cells, or transfected HEK293F cells; also called CD28 on Jurkat cells; CD28 on human CD3+ T cells

[4] = biological target: T5, Recombinant human CD28-Fc (human, UniProt P10747 19-152); assay: ELISA, coated CD28-Fc
T5 construct: not shown: Fc part

[5] = biological target: T6, Recombinant mouse CD28-Fc (mouse, UniProt P31041 20-150); assay: ELISA, coated CD28-Fc
T6 construct: not shown: Fc part

[6] = biological target: T5, Recombinant human CD28-Fc; assay: ELISA on coated recombinant human CD28-Fc, HRP anti-human IgG (Fab specific), A450
Procedure: (§1) When measuring the masking efficiency through ELISA, recombinant human CD28-Fc was diluted to 2 g/mL in PBS and coated onto a MaxiSorp™ high protein-binding capacity 96 well ELISA plate (ThermoFisher Scientific) at 4° C. overnight. Plates were blocked with PBS supplemented with 3% non-fat milk at 37° C. for 1 hour. After washing, 100 μL of 3-fold serial dilutions of anti-CD28 test mAbs were added to each well. After incubation at 37° C. for 1 hour, plates were washed four times, and 100 μL horseradish peroxidase (HRP)-conjugated anti-human IgG (Fab specific) (1:6000 dilution) secondary antibody was added to each well. Plates were incubated at 37° C. for 1 hour, washed four times, and then 50 μL a TMB substrate (3, 3′, 5, 5′-tetramethylbenzidine) solution was added to each well, and the plate was incubated at room temperature. Absorbance at 450 nm was measured after the reactions were stopped with 50 μL sulfuric acid stop solution per well. The EC₅₀ was evaluated by fitting the ELISA data using the sigmoidal (four-parameter logistic equation) model of GraphPad Prism version 6 for Windows, GraphPad Software, La Jolla California USA, www.graphpad.com.

[7] = biological target: T7, His-tagged human CTLA4 protein (human, UniProt P16410 36-161, limits assumed); assay: Octet BLI, mAb captured;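 on Kd: Anti-human Fc biosensors captured the antibodies, then His-tagged protein analytes at 100 nM associated for 300 s and dissociated for 300 s, fitted by a 1:1 Langmuir model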;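 on koff: Anti-human Fc biosensors captured the antibodies, then His-tagged protein analytes at 100 nM associated for 300 s and dissociated for 300 s, fitted by a 1:1 Langmuir model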
T7 construct: not shown: His tag

[8] = biological target: T8, His-tagged human CD28 protein (human, UniProt P10747 19-152); assay: Octet BLI, mAb captured;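 further: Anti-human Fc biosensors captured the antibodies, then His-tagged protein analytes at 100 nM associated for 300 s and dissociated for 300 s, fitted by a 1:1 Langmuir model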
T8 construct: not shown: His tag

[9] = biological target: T5, Recombinant human CD28-Fc; assay: ELISA on coated recombinant human CD28-Fc, HRP anti-human IgG (Fab specific), A450; remark: listed apart in the source
Procedure: as §1

[10] = biological target: T2, Human CD28 (ELISAs of Examples 4 and 13); assay: ELISA, blocking of CD28-CD80
HER2 on SK-OV-3 cells = biological target: T9, HER2 on SK-OV-3 cells (UniProt P04626 23-1255, limits assumed); assay: flow cytometry on SK-OV-3 cells, APC anti-human IgG Fc secondary antibody, mean fluorescence intensity, 4-parameter fit; drawn table
T9 construct: whole, on cells; also called HER2 antigen

[11] = biological target: T7, His-tagged human CTLA4 protein; assay: Octet BLI, mAb captured; remark: listed apart in the source;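 on Kd: Anti-human Fc biosensors captured the antibodies, then His-tagged protein analytes at 100 nM associated for 300 s and dissociated for 300 s, fitted by a 1:1 Langmuir model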
Procedure: The Octet® RED96 Systems (ForteBio) was used to assess the binding kinetics of the panel of anti-CD28 mAbs to human CD28 and CTLA4. Briefly, the mAbs were diluted to 15 μg/mL in kinetic buffer (PBS supplemented with 0.02% Tween 20 and 0.1% BSA), and captured by Dip and Read AHC biosensors (ForteBio) in parallel. The sensors were then allowed to associate with His-tagged human CD28 and CTLA4 proteins (100 nM) for 300 seconds, and to dissociate in kinetic buffer for another 300 seconds. The association and dissociation curves were fitted to a 1:1 Langmuir binding model using the Octet® Data Analysis Software Version 7.1 (ForteBio).

T7 sequence (P16410 36-161 limits assumed): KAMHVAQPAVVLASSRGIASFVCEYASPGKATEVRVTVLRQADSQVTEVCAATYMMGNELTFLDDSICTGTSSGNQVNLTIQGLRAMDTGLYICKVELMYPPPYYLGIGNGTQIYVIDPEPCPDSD
Mouse CD28 (ELISA of Example 13), sequence (P31041 20-150 limits assumed): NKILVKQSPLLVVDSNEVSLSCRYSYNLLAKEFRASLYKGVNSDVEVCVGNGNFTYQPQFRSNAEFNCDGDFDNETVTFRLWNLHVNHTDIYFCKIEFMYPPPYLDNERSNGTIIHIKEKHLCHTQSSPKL
T1 sequence (P31041 20-218 limits assumed): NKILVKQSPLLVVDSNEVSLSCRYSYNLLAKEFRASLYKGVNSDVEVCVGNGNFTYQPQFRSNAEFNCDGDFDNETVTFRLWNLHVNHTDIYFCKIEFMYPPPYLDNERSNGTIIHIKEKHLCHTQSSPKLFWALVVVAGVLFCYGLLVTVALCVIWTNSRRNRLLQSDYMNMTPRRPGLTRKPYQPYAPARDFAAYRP
T6 sequence (P31041 20-150 limits assumed): as the sequence (P31041 20-150 limits assumed) above

Row | Binder | AUC (Mouse CD28 on cells) | EC50 (Mouse CD28 on cells) [nM] | Max MFI (Mouse CD28 on cells) | EC50 [1] [nM] | EC50 [2] [nM] | EC50 (Human CD28 on cells) [nM] | Kd [8] [nM] | other results
1 | B1 | 4380 | 145 | 2710 | 74.2 | 3.03 | – | – | –
2 | B2 | – | – | – | – | – | – | – | EC50 (B7H3 on MDA-MB-231 cells): 12.8 nM; fold reduction of binding activity against TY21601 (B7H3 on MDA-MB-231 cells): ~28 fold
3 | B3 | – | – | – | – | – | – | – | EC50 [3]: 22.3 nM
4 | B4 | 4620 | 142 | 2860 | 108 | 5.73 | – | – | –
5 | B5 | – | – | – | – | – | – | – | EC50 [3]: 26.8 nM
6 | B6 | 3820 | 76.2 | 1980 | 96.4 | 3.59 | – | – | –
7 | B7 | – | – | – | – | – | 0.46 | < 0.001 | EC50 [4]: 0.58 nM; EC50 [5]: > 4.94 nM; EC50 (read off the curve) [6]: ~0.7 nM; binding result [7]: no binding (tested: 100 nM CTLA4); EC50 (read off the curve) [9]: ~0.9 nM; IC50 [10]: 0.68 nM
8 | B8 | – | – | – | – | – | – | – | EC50 (HER2 on SK-OV-3 cells): 3.74 nM
9 | B9 | – | – | – | – | – | 0.71 | 8.29 | binding result [11]: no binding (tested: 100 nM CTLA4); koff [8]: 0.000319 s⁻¹; kon [8]: 38500 M⁻¹ s⁻¹
10 | B10 | – | – | – | – | – | 0.43 | 3.96 | binding result [11]: no binding (tested: 100 nM CTLA4); koff [8]: 0.000164 s⁻¹; kon [8]: 41600 M⁻¹ s⁻¹
